Consider 8 proteins from publication PMC3290569, “Macro-to-Micro Structural Proteomics: Native Source Proteins for High-Throughput Crystallization” (PLoS ONE, 2012).

Series [1] deals with the molecule itself. The experiment in a line: crystal structure; native source E. coli proteins already in the PDB, identified and solved by brute-force molecular replacement, not refined except to confirm the solution; oligomer seen in the crystal.
Series [2] concerns the molecule itself. Put plainly: crystal structure; novel structures of native source E. coli proteins, solved by molecular replacement and refined; oligomer seen in the crystal.

B1: phosphoserine aminotransferase (enzyme, Escherichia coli, UniProt P23721 1-362, looked up)
chain: MAQIFNFSSGPAMLPAEVLKQAQQELRDWNGLGTSVMEVSHRGKEFIQVAEEAEKDFRDLLNVPSNYKVLFCHGGGRGQFAAVPLNILGDKTTADYVDAGYWAASAIKEAKKYCTPNVFDAKVTVDGLRAVKPMREWQLSDNAAYMHYCPNETIDGIAIDETPDFGADVVVAADFSSTILSRPIDVSRYGVIYAGAQKNIGPAGLTIVIVREDLLGKANIACPSILDYSILNDNGSMFNTPPTFAWYLSGLVFKWLKANGGVAEMDKINQQKAELLYGVIDNSDFYRNDVAKANRSRMNVPFQLADSALDKLFLEESFAAGLHALKGHRVVGGMRASIYNAMPLEGVKALTDFMVEFERRHG
notes: phosphoserine aminotransferase, Escherichia coli, native source protein; identified with PDB 1BJN; the PDB entry is the previously deposited structure that identified the protein; the crystallised protein is the native one; source: purified from E. coli DH5α cells (whole-proteome fractionation)
As to B1, in series [1], the binding result is listed as “binds”.

B2: ycaC gene product (natural protein, Escherichia coli, UniProt P21367 1-208, looked up)
chain: MTKPYVRLDKNDAAVLLVDHQAGLLSLVRDIEPDKFKNNVLALGDLAKYFNLPTILTTSFETGPNGPLVPELKAQFPDTPYIARPGNINAWDNEDFVKAVKATGKKQLIIAGVVTEVCVAFPALSAIEEGFDVFVVTDASGTFNEITRHSAWDRLSQAGAQLMTWFGVACELHRDWRNDIEGLATLFSNHIPDYRNLMTSYDTLTKQK
notes: ycaC gene product, Escherichia coli, native source protein; identified with PDB 1YAC; the PDB entry is the previously deposited structure that identified the protein; the crystallised protein is the native one; source: purified from E. coli DH5α cells (whole-proteome fractionation)
B2: the binding result in series [1] is given as “binds”.

B3: Methylglyoxal reductase (YghZ) (enzyme, Escherichia coli, UniProt Q46851 1-346, looked up)
chain: MVWLANPERYGQMQYRYCGKSGLRLPALSLGLWHNFGHVNALESQRAILRKAFDLGITHFDLANNYGPPPGSAEENFGRLLREDFAAYRDELIISTKAGYDMWPGPYGSGGSRKYLLASLDQSLKRMGLEYVDIFYSHRVDENTPMEETASALAHAVQSGKALYVGISSYSPERTQKMVELLREWKIPLLIHQPSYNLLNRWVDKSGLLDTLQNNGVGCIAFTPLAQGLLTGKYLNGIPQDSRMHREGNKVRGLTPKMLTEANLNSLRLLNEMAQQRGQSMAQMALSWLLKDDRVTSVLIGASRAEQLEENVQALNNLTFSTKELAQIDQHIADGELNLWQASSDK
notes: methylglyoxal reductase YghZ, Escherichia coli, native source protein; identified from the electron density after molecular replacement; source: purified from E. coli DH5α cells (heparin sepharose, phenyl sepharose, MonoQ)
On to B3, for which the stoichiometry N – broadly, a count of units in the complex or per binding partner – in series [2] was 4.

B4: MoaB (molybdopterin biosynthesis protein B) (natural protein, Escherichia coli, UniProt P0AEZ9 1-170, looked up)
chain: MSQVSTEFIPTRIAILTVSNRRGEEDDTSGHYLRDSAQEAGHHVVDKAIVKENRYAIRAQVSAWIASDDVQVVLITGGTGLTEGDQAPEALLPLFDREVEGFGEVFRMLSFEEIGTSTLQSRAVAGVANKTLIFAMPGSTKACRTAWENIIAPQLDARTRPCNFHPHLKK
notes: MoaB, molybdopterin biosynthesis protein B, Escherichia coli, native source protein; identified with PDB 1R2K; the PDB entry is the previously deposited structure that identified the protein; the crystallised protein is the native one; source: purified from E. coli DH5α cells (whole-proteome fractionation)
As to B4, in series [1], the binding result is “binds”.

B5: Dihydrodipicolinate synthase (enzyme, Escherichia coli, UniProt P0A6L2 1-292, looked up)
chain: MFTGSIVAIVTPMDEKGNVCRASLKKLIDYHVASGTSAIVSVGTTGESATLNHDEHADVVMMTLDLADGRIPVIAGTGANATAEAISLTQRFNDSGIVGCLTVTPYYNRPSQEGLYQHFKAIAEHTDLPQILYNVPSRTGCDLLPETVGRLAKVKNIIGIKEATGNLTRVNQIKELVSDDFVLLSGDDASALDFMQLGGHGVISVTANVAARDMAQMCKLAAEGHFAEARVINQRLMPLHNKLFVEPNPIPVKWACKELGLVATDTLRLPMTPITDSGRETVRAALKHAGLL
notes: dihydrodipicolinate synthase, Escherichia coli, native source protein; identified with PDB 1DHP; the PDB entry is the previously deposited structure that identified the protein; the crystallised protein is the native one; source: purified from E. coli DH5α cells (whole-proteome fractionation)
On to B5, for which the binding result in series [1] was “binds”.

B6: Malate dehydrogenase (enzyme, Escherichia coli, UniProt P61889 1-312, looked up)
chain: MKVAVLGAAGGIGQALALLLKTQLPSGSELSLYDIAPVTPGVAVDLSHIPTAVKIKGFSGEDATPALEGADVVLISAGVARKPGMDRSDLFNVNAGIVKNLVQQVAKTCPKACIGIITNPVNTTVAIAAEVLKKAGVYDKNKLFGVTTLDIIRSNTFVAELKGKQPGEVEVPVIGGHSGVTILPLLSQVPGVSFTEQEVADLTKRIQNAGTEVVEAKAGGGSATLSMGQAAARFGLSLVRALQGEQGVVECAYVEGDGQYARFFSQPLLLGKNGVEERKSIGTLSAFEQNALEGMLDTLKKDIALGEEFVNK
notes: malate dehydrogenase, Escherichia coli, native source protein; identified with PDB 2PWZ; the PDB entry is the previously deposited structure that identified the protein; the crystallised protein is the native one; source: purified from E. coli DH5α cells (whole-proteome fractionation)
As for B6, the binding result in series [1] was “binds”.

B7: Citrate synthase (enzyme, Escherichia coli, UniProt P0ABH7 1-427, looked up)
chain: MADTKAKLTLNGDTAVELDVLKGTLGQDVIDIRTLGSKGVFTFDPGFTSTASCESKITFIDGDEGILLHRGFPIDQLATDSNYLEVCYILLNGEKPTQEQYDEFKTTVTRHTMIHEQITRLFHAFRRDSHPMAVMCGITGALAAFYHDSLDVNNPRHREIAAFRLLSKMPTMAAMCYKYSIGQPFVYPRNDLSYAGNFLNMMFSTPCEPYEVNPILERAMDRILILHADHEQNASTSTVRTAGSSGANPFACIAAGIASLWGPAHGGANEAALKMLEEISSVKHIPEFVRRAKDKNDSFRLMGFGHRVYKNYDPRATVMRETCHEVLKELGTKDDLLEVAMELENIALNDPYFIEKKLYPNVDFYSGIILKAMGIPSSMFTVIFAMARTVGWIAHWSEMHSDGMKIARPRQLYTGYEKRDFKSDIKR
notes: citrate synthase, Escherichia coli, native source protein; identified with PDB 1NXG; the PDB entry is the previously deposited structure that identified the protein; the crystallised protein is the native one; source: purified from E. coli DH5α cells (whole-proteome fractionation)
On to B7, for which the binding result in series [1] is “binds”.

B8: Adenylosuccinate synthetase (enzyme, Escherichia coli, UniProt P0A7D4 1-432, looked up)
chain: MGNNVVVLGTQWGDEGKGKIVDLLTERAKYVVRYQGGHNAGHTLVINGEKTVLHLIPSGILRENVTSIIGNGVVLSPAALMKEMKELEDRGIPVRERLLLSEACPLILDYHVALDNAREKARGAKAIGTTGRGIGPAYEDKVARRGLRVGDLFDKETFAEKLKEVMEYHNFQLVNYYKAEAVDYQKVLDDTMAVADILTSMVVDVSDLLDQARQRGDFVMFEGAQGTLLDIDHGTYPYVTSSNTTAGGVATGSGLGPRYVDYVLGILKAYSTRVGAGPFPTELFDETGEFLCKQGNEFGATTGRRRRTGWLDTVAVRRAVQLNSLSGFCLTKLDVLDGLKEVKLCVAYRMPDGREVTTTPLAADDWKGVEPIYETMPGWSESTFGVKDRSGLPQAALNYIKRIEELTGVPIDIISTGPDRTETMILRDPFDA
notes: adenylosuccinate synthetase, Escherichia coli, native source protein; identified with PDB 1CG1; the PDB entry is the previously deposited structure that identified the protein; the crystallised protein is the native one; source: purified from E. coli DH5α cells (whole-proteome fractionation)
For the protein B8, in series [1], the binding result is recorded as “binds”.
